Results taken from patent US20250154198A1, “PEPTIDE INHIBITORS OF INTERLEUKIN-23 RECEPTOR” (Zealand Pharma A/S, priority 2021, published 2025).
Like-named read-outs stand apart in the source and are kept apart here. One block for each binder: values may come before it. *1 amine or outer side, *2 acyl side, *3 side chain or, on linkers, in order; H or OH if unused. Bridges are numbered along the chain shown (N, C = ends). [ ]: non-standard residue; d: D form. 1,3‑dibromopropan‑2‑one = linker (CAS 816-39-7) joining two Cys as 1,3-dithio-propan-2-one bridge -SCH2C(=O)CH2S-; 2Nal = N[C@@H](Cc1ccc2ccccc2c1)C(=O)O; AEF = NCCOc1ccc(C[C@H](N)C(=O)O)cc1; CH2COCH2 = O=C(C[*:1])C[*:2]; 3Amb = NCc1cccc(C(=O)O)c1

How the values were obtained:
[1] = molecular target: T1, human IL-23R endogenously expressed on DB cells (CRL-2289) (human, UniProt Q5VWK5 24-629); test: cell-based or functional assay
T1 sequence (looked up): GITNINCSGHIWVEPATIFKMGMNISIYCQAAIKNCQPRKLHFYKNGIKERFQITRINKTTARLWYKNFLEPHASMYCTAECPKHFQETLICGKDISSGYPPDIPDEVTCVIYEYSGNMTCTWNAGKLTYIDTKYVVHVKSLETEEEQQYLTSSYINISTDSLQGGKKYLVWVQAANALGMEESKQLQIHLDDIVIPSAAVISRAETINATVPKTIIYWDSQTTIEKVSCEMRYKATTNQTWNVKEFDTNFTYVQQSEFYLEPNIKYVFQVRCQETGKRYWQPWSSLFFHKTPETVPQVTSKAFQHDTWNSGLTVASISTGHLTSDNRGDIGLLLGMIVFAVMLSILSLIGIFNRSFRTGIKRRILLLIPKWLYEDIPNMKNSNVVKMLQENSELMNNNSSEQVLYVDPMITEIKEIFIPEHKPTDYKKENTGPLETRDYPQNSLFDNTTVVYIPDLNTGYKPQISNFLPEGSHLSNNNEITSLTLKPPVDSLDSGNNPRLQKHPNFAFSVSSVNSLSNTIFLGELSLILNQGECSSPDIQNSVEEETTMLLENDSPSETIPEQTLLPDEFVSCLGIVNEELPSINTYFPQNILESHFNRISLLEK

[2] = molecular target: T1, human IL-23R endogenously expressed on …; test: cell-based or functional assay; remark: listed apart in the source
[3] = molecular target: T1, human IL-23R endogenously expressed on …; test: cell-based or functional assay; remark: listed apart in the source
[4] = molecular target: T1, human IL-23R endogenously expressed on …; test: cell-based or functional assay; remark: listed apart in the source
[5] = molecular target: T2, Nluc-IL23R fusion protein (human, UniProt Q5VWK5 22-629); test: BRET displacement of TAMRA-labelled peptide, Nluc-IL23R membranes
T2 construct: range 22-629; Stably expressed in HEK293 cells; also called hIL-23R; human IL-23R fused to a Nanoluc luciferase enzyme; not shown: Nanoluc luciferase (Promega N1371 plasmid) at the N-terminus
T2 sequence (looked up): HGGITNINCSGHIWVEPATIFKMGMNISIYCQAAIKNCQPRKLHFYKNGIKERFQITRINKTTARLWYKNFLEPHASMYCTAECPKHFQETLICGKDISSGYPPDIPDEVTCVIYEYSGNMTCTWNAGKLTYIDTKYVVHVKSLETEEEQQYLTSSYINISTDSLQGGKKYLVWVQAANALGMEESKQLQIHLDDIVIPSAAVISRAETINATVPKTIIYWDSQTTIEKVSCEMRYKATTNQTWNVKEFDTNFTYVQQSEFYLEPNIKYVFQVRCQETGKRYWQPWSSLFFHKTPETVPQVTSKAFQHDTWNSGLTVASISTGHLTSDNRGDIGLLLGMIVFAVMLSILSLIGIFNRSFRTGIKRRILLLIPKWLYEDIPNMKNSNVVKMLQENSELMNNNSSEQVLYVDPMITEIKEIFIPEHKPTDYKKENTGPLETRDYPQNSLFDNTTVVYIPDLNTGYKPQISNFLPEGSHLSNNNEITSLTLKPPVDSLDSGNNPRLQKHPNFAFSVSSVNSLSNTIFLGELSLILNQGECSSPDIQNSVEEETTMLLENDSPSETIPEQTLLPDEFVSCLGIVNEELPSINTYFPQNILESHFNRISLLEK

[6] = molecular target: T2, Nluc-IL23R fusion protein; test: as above; remark: listed apart in the source
Description: (§1) The plate was sealed with light impermeable plate seals, and incubated on a orbital shaker 400 rpm for 2 hours at room temperature. To determine the BRET ratio, the plate seal was removed and 25 μL of the Nanoluc substrate (Promega N1572) diluted 1:500 was added to each well and incubated for 1-2 minutes on an orbital shaker at 400 rpm. […] The BRET ratio was calculated as the fluorescence from the TAMRA/nanoluc bioluminescence. The IC₅₀ for each compound was determined by computer-aided curve fitting using a 4-parameter logistic (4PL) non-linear model.

[7] = molecular target: T2, Nluc-IL23R fusion protein; test: as above; remark: listed apart in the source
Description: as §1

[8] = molecular target: T2, Nluc-IL23R fusion protein; test: as above; remark: listed apart in the source
[9] = molecular target: T1, human IL-23R endogenously expressed on …; test: cell-based or functional assay; remark: listed apart in the source
[10] = molecular target: T1, human IL-23R endogenously expressed on …; test: cell-based or functional assay; remark: listed apart in the source
[11] = molecular target: T1, human IL-23R endogenously expressed on …; test: cell-based or functional assay; remark: listed apart in the source
[12] = molecular target: T2, Nluc-IL23R fusion protein; test: BRET displacement of TAMRA-labelled peptide, Nluc-IL23R membranes; remark: listed apart in the source
Description: as §1

[13] = molecular target: T2, Nluc-IL23R fusion protein; test: as above; remark: listed apart in the source
Description: as §1

[14] = molecular target: T2, Nluc-IL23R fusion protein; test: as above; remark: listed apart in the source
Description: as §1

[15] = molecular target: T1, human IL-23R endogenously expressed on …; test: cell-based or functional assay; remark: listed apart in the source
[16] = molecular target: T1, human IL-23R endogenously expressed on …; test: cell-based or functional assay; remark: listed apart in the source
[17] = molecular target: T2, Nluc-IL23R fusion protein; test: BRET displacement of TAMRA-labelled peptide, Nluc-IL23R membranes; remark: listed apart in the source
Description: as §1

[18] = molecular target: T1, human IL-23R endogenously expressed on …; test: cell-based or functional assay; remark: listed apart in the source
[19] = molecular target: T2, Nluc-IL23R fusion protein; test: BRET displacement of TAMRA-labelled peptide, Nluc-IL23R membranes; remark: listed apart in the source
Description: as §1

B1: Compound 29 (peptide)
peptide: Ac-KSCWQC[AEF][2Nal]LER-NH2
modifications: lactam 1-10; linker 3-6 via CH2COCH2
SMILES: CC(=O)N[C@H]1CCCCNC(=O)CC[C@@H](C(=O)N[C@@H](CCCNC(=N)N)C(N)=O)NC(=O)[C@H](CC(C)C)NC(=O)[C@H](Cc2ccc3ccccc3c2)NC(=O)[C@H](Cc2ccc(OCCN)cc2)NC(=O)[C@@H]2CSCC(=O)CSC[C@H](NC(=O)[C@H](CO)NC1=O)C(=O)N[C@@H](Cc1c[nH]c3ccccc13)C(=O)N[C@@H](CCC(N)=O)C(=O)N2
IC50 (pSTAT3) [1]: 19.7 nM | IC50 (pSTAT3) [2]: 19.7 nM

Binder: H-DESCWQCWWLKR-NH2 (lactam 2-11; linker 4-7 via 1,3‑dibromopropan‑2‑one) [Compound 4]
IC50 (pSTAT3) [9]: > 1 µM | IC50 (pSTAT3) [10]: > 1 µM | IC50 (pSTAT3) [11]: > 1 µM | IC50 (pSTAT3) [2]: 847 nM | Ki [12]: 143 nM | Ki [13]: 143 nM | Ki [14]: 143 nM | Ki [8]: 143 nM

B3: I4 (isomer 3) (peptide)
peptide: H-ECWLCYYRNCNCM-NH2
modifications: linker 5-10, 2-12 via 1,3‑dibromopropan‑2‑one
notes: Peptide of Heinis et al., 2020, synthesised and tested by the inventors
IC50 (pSTAT3) [16]: > 1 µM | IC50 (pSTAT3) [2]: > 1 µM | Ki [17]: > 1000 nM

Binder: Ac-DESCWQCW[2Nal]LKR-NH2 (lactam 2-11; linker 4-7 via CH2COCH2) [Compound 17]
IC50 (pSTAT3) [11]: 366 nM | IC50 (pSTAT3) [2]: 366 nM | Ki [14]: 70.7 nM | Ki [8]: 70.7 nM

Binder: [3Amb]SCWQCW[2Nal]LER-NH2 (lactam N-10; linker 3-6 via CH2COCH2) [Compound 37]
IC50 (pSTAT3) [4]: 44.6 nM | IC50 (pSTAT3) [18]: 44.6 nM | IC50 (pSTAT3) [2]: 44.6 nM | Ki [6]: 9.86 nM | Ki [19]: 9.86 nM | Ki [8]: 9.87 nM

Continued by falling Ki [8], values first:

IC50 (pSTAT3) [3]: 32.3 nM | IC50 (pSTAT3) [15]: 32.3 nM | IC50 (pSTAT3) [2]: 33.2 nM | Ki [8]: 6.33 nM
B2: Compound 19 (peptide)
peptide: DKSCWQCWXLER
HELM: PEPTIDE1{[ac].D.K.S.C.W.Q.C.W.[O=C([C@H](Cc1ccc2ccccc2c1)N[*:1])[*:2]].L.E.R.[am]}|CHEM1{[O=C(C[*:1])C[*:2]]}$PEPTIDE1,PEPTIDE1,3:R3-12:R3|PEPTIDE1,CHEM1,5:R3-1:R1|PEPTIDE1,CHEM1,8:R3-1:R2$$$V2.0
SMILES: CC(=O)N[C@@H](CC(=O)O)C(=O)N[C@H]1CCCCNC(=O)CC[C@@H](C(=O)N[C@@H](CCCNC(=N)N)C(N)=O)NC(=O)[C@H](CC(C)C)NC(=O)[C@H](Cc2ccc3ccccc3c2)NC(=O)[C@H](Cc2c[nH]c3ccccc23)NC(=O)[C@@H]2CSCC(=O)CSC[C@H](NC(=O)[C@H](CO)NC1=O)C(=O)N[C@@H](Cc1c[nH]c3ccccc13)C(=O)N[C@@H](CCC(N)=O)C(=O)N2

IC50 (pSTAT3) [3]: 17.6 nM | IC50 (pSTAT3) [4]: 17.6 nM | IC50 (pSTAT3) [1]: 17.6 nM | IC50 (pSTAT3) [2]: 17.6 nM | Ki [5]: 2.85 nM | Ki [6]: 2.85 nM | Ki [7]: 2.85 nM | Ki [8]: 2.85 nM
Binder: Ac-KSCWQCW[2Nal]LER-NH2 (lactam 1-10; linker 3-6 via CH2COCH2) [Compound 18]
